Results: patent US20250270304A1 (PHENOMIC AI, published 2025)
Residue numbers refer to the chain shown, from its start. Values belong to the binder of their own block, whether it stands above or below them.

Experiments:
[1] = target: T1, Latent Activin A (human, UniProt P08476 21-426, limits assumed); assay: ELISA dose-response, coated antigen
T1 construct: also called INHBA latent
T1 sequence: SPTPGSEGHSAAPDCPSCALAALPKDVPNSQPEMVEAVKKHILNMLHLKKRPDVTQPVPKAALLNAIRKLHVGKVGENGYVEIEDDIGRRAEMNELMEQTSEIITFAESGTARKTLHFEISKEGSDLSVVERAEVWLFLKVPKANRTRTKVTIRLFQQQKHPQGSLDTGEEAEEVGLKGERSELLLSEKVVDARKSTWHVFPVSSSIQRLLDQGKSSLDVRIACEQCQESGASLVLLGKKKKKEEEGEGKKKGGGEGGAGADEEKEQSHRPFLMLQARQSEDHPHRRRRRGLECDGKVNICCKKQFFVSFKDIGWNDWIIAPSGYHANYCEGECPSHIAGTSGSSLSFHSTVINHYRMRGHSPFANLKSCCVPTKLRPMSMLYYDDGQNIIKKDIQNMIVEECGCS
Protocol: (§1) Antibodies were re-expressed in 40 mL cultures of Expi293 cells and purified using protein G magnetic sepharose beads (Cytiva, Marlborough, MA) to provide larger quantities for secondary screening. Secondary screening included dose responses in both functional assays described above (SMAD nuclear localization and fibroblast activations assays) as well as in binding assays to the same antigens listed in Table 3. Plates were coated with 25 μL of 3 μg/mL antigen in 384-well Maxisorp plates overnight at 4° C. with agitation. The next day, the samples in the plates were blocked with 70 μL blocking buffer (PBS+1% BSA+0.1% Tween-20) for 2 hours at room temperature. Plates were then washed three times with 100 μL of wash buffer (PBS+0.1% Tween-20). Primary antibodies in Expi293 expression medium were diluted 1:3 in blocking buffer, 25 μL added per well, and the plates were incubated for an hour at room temperature with agitation. Plates were then washed three times and 25 μL of secondary antibody (goat anti-Human IgG, HRP conjugated; Jackson Immunoresearch) diluted 1:5000 in blocking buffer was added for 30 minutes at room temperature. The wells in the plates were washed six times with wash buffer and TMB substrate was added followed by 1 M H3PO4.

[2] = target: T2, Mature Activin A (human, UniProt P08476 311-426); assay: ELISA dose-response, coated antigen
T2 construct: also called active Activin A; INHBA mature
T2 sequence: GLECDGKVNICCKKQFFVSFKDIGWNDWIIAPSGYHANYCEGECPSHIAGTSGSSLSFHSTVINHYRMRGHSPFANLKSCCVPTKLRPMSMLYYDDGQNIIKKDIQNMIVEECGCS
Protocol: as §1

[3] = target: T3, Activin B (Homo sapiens (Human), UniProt P09529 293-407); assay: ELISA dose-response, coated antigen; dose-response ELISA, 1:3 dilutions from 133 nM; weak binding within the tested range
T3 construct: also called Mature Activin B; mature Activin B
T3 sequence: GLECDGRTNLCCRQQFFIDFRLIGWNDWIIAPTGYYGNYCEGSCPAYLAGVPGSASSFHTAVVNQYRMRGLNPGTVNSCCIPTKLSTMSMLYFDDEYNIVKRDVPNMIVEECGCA
Protocol: as §1

[4] = target: T3, Activin B; assay: ELISA, coated antigen, OD450; secondary screen, single OD 450 reading as fold over negative control; below the 1.40-fold cut-off
Protocol: as §1

[5] = target: T1, Latent Activin A; assay: ELISA, coated antigen, OD450
Protocol: as §1

[6] = target: T4, Inhibin A (Homo sapiens (Human), UniProt P05111 233-366; P08476 311-426); assay: ELISA, coated antigen, OD450
T4 sequence 1: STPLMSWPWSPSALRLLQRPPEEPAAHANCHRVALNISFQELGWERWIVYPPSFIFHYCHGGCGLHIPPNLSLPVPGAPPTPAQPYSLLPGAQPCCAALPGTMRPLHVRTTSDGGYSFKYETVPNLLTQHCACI
T4 sequence 2: T2 sequence
Protocol: as §1

[7] = target: T2, Mature Activin A; assay: ELISA, coated antigen, OD450
Protocol: as §1

[8] = target: T5, Inhibin B (Homo sapiens (Human), UniProt P05111 233-366; P09529 293-407); assay: the assays described above
T5 sequence 1: T4 sequence 1
T5 sequence 2: T3 sequence

[9] = target: T4, Inhibin A; assay: ELISA dose-response, coated antigen (row 'Inhibin')
Protocol: as §1

[10] = target: T3, Activin B; assay: ELISA dose-response, coated antigen
Protocol: as §1

[11] = target: T3, Activin B; assay: ELISA, coated antigen, OD450
Protocol: as §1

[12] = target: T4, Inhibin A; assay: ELISA, coated antigen, OD450; remark: listed apart in the source
[13] = target: T3, Activin B; assay: ELISA, coated antigen, OD450; remark: listed apart in the source

B1: AB852 (antibody, IgG1, V domains shown)
VH: QVTLRESGPALVKPTQTLTLTCTVSGFSLSDTRWGVNWIRQPPGKALEWIGYINDRGTTDYNSALKSRLTISKDTSKNQVVLTMTNMDPVDTATYYCAHTLHTREFVGMDVWGQGTTVTVSS
VL: DIVMTQSPDSLAVSLGERATINCKSSQSVLDTSTNRNYLAWYQQKPGQPPKLLIYGASIRAGGVPDRFSGSGSGTDFTLTISSLQAEDVAVYYCQQYETWPWTFGGGTKVEIK
EC50 [1]: 40900 pM
EC50 [2]: 2730 pM
EC50 [3]: 21300 pM
fold-change of OD 450 over negative control (BSA) [4]: 0.88 fold
fold-change of OD 450 over negative control (BSA) [5]: 6.01 fold
fold-change of OD 450 over negative control (BSA) [6]: 0.94 fold
fold-change of OD 450 over negative control (BSA) [7]: 8.73 fold

B4: AB347 (antibody, IgG1, V domains shown)
VH: QVQLQESGPGLVKPSQTLSLTCTVSGFPLSTSRMGVNWIRQPPGKGLEWIGYINPSGATDYNPSLKSRVTMSVDTSKNQFSLKVNSVTAADTAVYYCARAGYPDVWGKGTTVTVSS
VL: EIVMTQSPATLSLSPGERATLSCRASQNIGHSLAWYQQKPGQAPRLLIYGASIRAPGIPARFSGSGSGTDFTLTISSLEPEDFAVYYCQQYITWPSTFGGGTKVEIK
EC50 [1]: 2460 pM
EC50 [2]: 720 pM
EC50 [10]: 950 pM
fold-change of OD 450 over negative control (BSA) [5]: 10.2 fold
fold-change of OD 450 over negative control (BSA) [6]: 0.74 fold
fold-change of OD 450 over negative control (BSA) [7]: 10.2 fold
fold-change of OD 450 over negative control (BSA) [11]: 2.54 fold

B5: AB353 (antibody, IgG1, V domains shown)
VH: B4 VH with F27L, P28S, T31N, S32A, R33K, I53V, N54S, P55T, S56T, A58T
VL: EIVMTQSPATLSLSPGERATLSCRASQNVYTNLAWYQQKPGQAPRLLIYGASARASGIPARFSGSGSGTDFTLTISSLEPEDFAVYYCLQYGSSPPLFGGGTKVEIK
binding result [12]: no binding (tested: 1.40-fold over BSA)
binding result [13]: no binding (tested: 1.40-fold over BSA)
fold-change of OD 450 over negative control (BSA) [5]: 4.4 fold
fold-change of OD 450 over negative control (BSA) [6]: 0.61 fold
fold-change of OD 450 over negative control (BSA) [7]: 8.98 fold
fold-change of OD 450 over negative control (BSA) [11]: 0.72 fold

Results, then the binder that gave them:

EC50 [1]: 30 pM
EC50 [2]: 30 pM
binding result [8]: no binding
fold-change of OD 450 over negative control (BSA) [4]: 0.57 fold
fold-change of OD 450 over negative control (BSA) [5]: 18.7 fold
fold-change of OD 450 over negative control (BSA) [6]: 11.7 fold
fold-change of OD 450 over negative control (BSA) [7]: 16.3 fold
EC50 [9]: 20 pM
B2: Control 1 (antibody, V domains shown)
VH: QVQLVQSGAEVKKPGASVKVSCKASGYTFTSYGLSWVRQAPGQGLEWMGWIIPYNGNTNSAQKLQGRVTMTTDTSTSTAYMELRSLRSDDTAVYFCARDRDYGVNYDAFDIWGQGTMVTVSS
VL: not shown
notes: also called AMGA1; Amga1

EC50 [1]: 40 pM
EC50 [2]: 20 pM
EC50 [10]: 30 pM
fold-change of OD 450 over negative control (BSA) [5]: 24.9 fold
fold-change of OD 450 over negative control (BSA) [6]: 22.9 fold
fold-change of OD 450 over negative control (BSA) [7]: 24.7 fold
fold-change of OD 450 over negative control (BSA) [11]: 24.6 fold
EC50 [9]: 50 pM
B3: AB843 (antibody, IgG1, V domains shown)
VH: EVQLVQSGAEVKKPGASVKVSCKASGDTSSHSHIHWVRQAPGQGLEWMGWINPRSGATNYAQKLQGRGTMTTDPSTSTAYMELRSLRSDDTAVYYCARDRGGRTNGVGAFDIWGQGTMVTVSS
VL: ESALTQPASVSGSPGQSITISCTGTSGDIGRYNYVSWYQQHPGKAPKLMIYEDIERPSGVSNRFSGSKSGNTASLTISGLQAEDEADYYCQVWDATLDLVFGGGTKLTVL
